Laboratory results taken from patent publication US20240383982A1 (Genmab, published 2024).

What was measured:
[1] = molecular target: T1, recombinant hIgG1 Fc-tagged cynomolgus monkey B7H4 (Creative BioMart, cat. no. VTCN1-1517R) (cynomolgus monkey, UniProt Q7Z7D3 25-259 (human entry)); assay: BLI (Octet HTX); Fc-tagged cynomolgus B7H4 coupled to AR2G sensor, bispecific antibody in solution (monovalent B7H4 binding); 2nd experiment (R^2 0.97, below the 0.98 threshold)
T1 construct: Bought protein; also called cynomolgus monkey B7H4 extracellular domain
T1 sequence: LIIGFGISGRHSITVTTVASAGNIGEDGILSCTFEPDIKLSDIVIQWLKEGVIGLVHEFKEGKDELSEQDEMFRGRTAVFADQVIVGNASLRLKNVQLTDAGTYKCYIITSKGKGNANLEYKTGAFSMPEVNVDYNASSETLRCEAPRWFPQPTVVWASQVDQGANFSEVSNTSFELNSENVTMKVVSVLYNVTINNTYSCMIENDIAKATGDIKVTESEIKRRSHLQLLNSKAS
Procedure: (§1) In addition, the affinity of for cynomolgus monkey B7H4 was determined by BLI. […] Amine Reactive 2nd Generation (AR2G) biosensors (FortéBio, cat. no. 18-5092) were activated by reaction with 20 mM EDC (N-(3-Dimethylaminopropyl)-N′-ethylcarbodiimide hydrochloride) (FortéBio, cat. no. 18-1033) and 10 mM s-NHS (N-hydroxysulfosuccinimide sodium salt) (FortéBio, cat. no. 18-1067) for 300 s. The activated sensors were loaded with 10 μg/mL recombinant hIgG1 Fc-tagged cynomolgus monkey B7H4 (Creative BioMart, cat. no. VTCN1-1517R) in 10 mM Sodium Acetate pH 4.0 (FortéBio, cat. no. 18-1068) for 600 s and quenched with 1 M ethanolamine pH 8.5 (FortéBio, cat. no. 18-1071) for 300 s. […] A molecular mass of 150 kDa of the antibodies was used for calculations. For each antibody a reference sensor was used, which was incubated with Sample Diluent instead of antibody.
(§2) Data were acquired using Data Acquisition Software v9.0.0.49d (FortéBio) and analyzed with Data Analysis Software v9.0.0.12 (FortéBio). Data traces were corrected per antibody by subtraction of the reference sensor. The Y-axis was aligned to the last 10 s of the baseline, Interstep Correction alignment to dissociation and Savitzky-Golay filtering were applied. Data traces with a response<0.05 nm were excluded from analysis. […]

[2] = molecular target: T1, recombinant hIgG1 Fc-tagged cynomolgus …; assay: BLI (Octet HTX); Fc-tagged cynomolgus B7H4 coupled to AR2G sensor, bispecific antibody in solution (monovalent B7H4 binding); 2nd experiment (R^2 0.97, below the 0.98 threshold); R^2 0.97, below the 0.98 quality threshold (footnote b)
Procedure: as §1, §2

B7H4-IgV/B7H3-IgC [3] = molecular target: T2, B7H4-IgV/B7H3-IgC; assay: flow cytometry, HEK cells transiently transfected with B7H4-IgV/B7H3-IgC, PE anti-human IgG F(ab')2 [panel B7H4-IgV/B7H3-IgC]
T2 construct: also called chimeric molecule with the IgV domain of B7H4 and the IgC domain of B7H3
T2 full-length chimeric protein on cells: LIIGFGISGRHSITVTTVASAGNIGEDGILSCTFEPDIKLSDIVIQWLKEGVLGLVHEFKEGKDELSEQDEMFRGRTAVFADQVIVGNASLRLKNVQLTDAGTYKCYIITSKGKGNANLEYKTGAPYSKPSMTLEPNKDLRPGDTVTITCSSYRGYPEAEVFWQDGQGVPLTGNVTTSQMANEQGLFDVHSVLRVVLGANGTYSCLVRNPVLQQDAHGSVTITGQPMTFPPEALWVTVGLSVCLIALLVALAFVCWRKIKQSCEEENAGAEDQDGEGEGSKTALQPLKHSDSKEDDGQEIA
Procedure: After washing twice in FACS buffer, cells were incubated with secondary antibody at 4° C. for 30 min. […] Next, cells were washed twice in FACS buffer, re-suspended in 20 μL FACS buffer and analyzed on an iQue Screener (Intellicyt Corporation, USA).
Further experiments were conducted to study the B7H4 domain specificity of the B7H4 antibodies in more detail, by analysis of full dose-response curves.

[4] = molecular target: T3, human B7H4, full length, on cells (human, UniProt Q7Z7D3 25-282); assay: flow cytometry on MDA-MB-468 tumor cells [MDA-MB-468 right panel]
T3 construct: Uniprot Q7Z7D3; Used for transfected HEK cells and for the B7H4-expressing human tumor cell lines (endogenous B7H4); also called VTCN1
T3 sequence: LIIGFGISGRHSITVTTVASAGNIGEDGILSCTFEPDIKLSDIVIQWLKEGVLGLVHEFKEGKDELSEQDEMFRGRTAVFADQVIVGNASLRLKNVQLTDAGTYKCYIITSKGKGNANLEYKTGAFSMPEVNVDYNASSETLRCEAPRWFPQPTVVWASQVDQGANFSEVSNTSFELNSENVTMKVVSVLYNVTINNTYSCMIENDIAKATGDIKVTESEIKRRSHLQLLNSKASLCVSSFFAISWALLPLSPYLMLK
Procedure: (§3) Cells (3×10⁴ cells/well) were incubated in polystyrene 96-well round-bottom plates (Greiner bio-one, cat. no. 650180) with serial dilutions of antibodies (ranging from 0.000458 to 30 μg/mL in 4-fold dilution steps) in 100 μL PBS/0.1% BSA/0.02% azide (staining buffer) at 4° C. for 30 min. Experiments were performed in technical duplicate. After washing twice in staining buffer, cells were incubated in 50 μL secondary antibody at 4° C. for 30 min. As a secondary antibody, R-Phycoerythrin (PE)-conjugated goat-anti-human IgG F(ab′)₂ (1:500 in FACS buffer; Jackson ImmunoResearch Laboratories, Inc., West Grove, PA, cat. no. 109-116-098), was used. Cells were washed twice in staining buffer, re-suspended in 30 μL FACS buffer containing Topro-3 (1:10,000 dilution) and analyzed on an iQue Screener (Intellicyt Corporation, USA). Binding curves were analyzed using non-linear regression (sigmoidal dose-response with variable slope) using GraphPad Prism V7.02 software (GraphPad Software, San Diego, CA, USA).
(§4) Binding was analyzed by flow cytometry as described above.

[5] = molecular target: T3, human B7H4, full length, on cells; assay: binding to tumor cells, as CD3 bispecific (monovalent) and IgG1 (bivalent)
B7H3 = molecular target: T4, B7H3; assay: flow cytometry, transiently transfected HEK cells, MFI as % of IgG1-B7H3-BRCA84D
T4 construct: also called human B7H3
T4 full-length protein on cells: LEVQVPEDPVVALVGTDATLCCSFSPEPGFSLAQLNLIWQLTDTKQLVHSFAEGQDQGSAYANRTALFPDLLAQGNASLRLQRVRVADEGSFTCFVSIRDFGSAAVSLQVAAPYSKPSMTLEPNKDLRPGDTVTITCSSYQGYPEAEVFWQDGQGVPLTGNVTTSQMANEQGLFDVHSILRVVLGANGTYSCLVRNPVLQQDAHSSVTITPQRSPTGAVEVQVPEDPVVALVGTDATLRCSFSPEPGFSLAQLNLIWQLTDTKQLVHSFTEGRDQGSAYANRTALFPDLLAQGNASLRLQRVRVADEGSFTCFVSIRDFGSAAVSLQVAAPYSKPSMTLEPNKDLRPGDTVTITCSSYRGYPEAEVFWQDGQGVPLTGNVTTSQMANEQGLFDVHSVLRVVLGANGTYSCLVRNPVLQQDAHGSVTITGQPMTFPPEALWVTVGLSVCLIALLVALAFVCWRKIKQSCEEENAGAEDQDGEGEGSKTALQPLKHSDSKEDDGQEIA
Procedure: (§5) Expression constructs were prepared encoding human B7H4, human B7H3 (Uniprot accession no. Q5ZPR3-1; SEQ ID NO: 9), or a chimeric molecule containing the IgV domain of B7H3 and the IgC domain of B7H4 (B7H3-IgV/B7H4-IgC; SEQ ID NO: 11), or a chimeric molecule containing the IgV domain of B7H4 and the IgC domain of B7H3 (B7H4-IgV/B7H3-IgC; SEQ ID NO: 10). HEK cells were transiently transfected to express these constructs.
(§6) Cells (3×10⁴ cell/well) were incubated in polystyrene 96-well round-bottom plates (Greiner bio-one, cat. no. 650101) with serial dilutions of antibodies (range 0.0046 to 10 μg/mL in 3-fold dilution steps) in 50 μL PBS/0.1% BSA/0.02% azide (FACS buffer) at 4° C. for 30 min. After washing twice in FACS buffer, cells were incubated with secondary antibody at 4° C. for 30 min. As a secondary antibody, R-Phycoerythrin (PE)-conjugated goat-anti-human IgG F(ab′)₂ (1:500 in staining buffer; Jackson ImmunoResearch Laboratories, Inc., West Grove, PA, cat. no. 109-116-098) was used. Next, cells were washed twice in FACS buffer, re-suspended in 20 μL FACS buffer and analyzed on an iQue Screener (Intellicyt Corporation, USA).

B7H4-IgV/B7H3-IgC [6] = molecular target: T2, B7H4-IgV/B7H3-IgC; assay: flow cytometry, transiently transfected HEK cells, MFI as % of the control antibody of the panel [continued) III]
Procedure: as §5, §6

[7] = molecular target: T3, human B7H4, full length, on cells; assay: flow cytometry on SK-BR3 tumor cells [panel SK-BR3 cells]
Procedure: as §3, §4

[8] = molecular target: T3, human B7H4, full length, on cells; assay: cell-based or functional assay
[9] = molecular target: T1, recombinant hIgG1 Fc-tagged cynomolgus …; assay: BLI (Octet HTX); Fc-tagged cynomolgus B7H4 coupled to AR2G sensor, bispecific antibody in solution (monovalent B7H4 binding); 1st experiment
Procedure: as §1
Data were acquired using Data Acquisition Software v9.0.0.49d (FortéBio) and analyzed with Data Analysis Software v9.0.0.12 (FortéBio). Data traces were corrected per antibody by subtraction of the reference sensor. The Y-axis was aligned to the last 10 s of the baseline, Interstep Correction alignment to dissociation and Savitzky-Golay filtering were applied. Data traces with a response<0.05 nm were excluded from analysis. The data was fitted with the 1:1 Global Full fit model using a window of interest for the association and dissociation times set at 100 s and 200 s respectively.

B1: bsIgG1-huCD3-H101G-FEALxB7H4-C5-FEAR (bispecific antibody)
heavy 1: not shown
light 1: not shown
heavy 2: QLQLQESGPGLVKPSETLSLTCTVSGGSIKSGSYYWGWIRQPPGKGLEWIGNIYYSGSTYYNPSLRSRVTISVDTSKNQFSLKLSSVTAADTAVYYCAREGSYPNQFDPWGQGTLVTVSSASTKGPSVFPLAPSSKSTSGGTAALGCLVKDYFPEPVTVSWNSGALTSGVHTFPAVLQSSGLYSLSSVVTVPSSSLGTQTYICNVNHKPSNTKVDKRVEPKSCDKTHTCPPCPAPEFEGGPSVFLFPPKPKDTLMISRTPEVTCVVVAVSHEDPEVKFNWYVDGVEVHNAKTKPREEQYNSTYRVVSVLTVLHQDWLNGKEYKCKVSNKALPAPIEKTISKAKGQPREPQVYTLPPSREEMTKNQVSLTCLVKGFYPSDIAVEWESNGQPENNYKTTPPVLDSDGSFFLYSRLTVDKSRWQQGNVFSCSVMHEALHNHYTQKSLSLSPGK
light 2: not shown
notes: also called bslgG1-huCD3-H101G-FEALxB7H4-C5-FEAR
[1]
  koff: 0.0025 s⁻¹
  kon: 420000 M⁻¹ s⁻¹
[2]
  Kd: 0.006 µM
B7H4-IgV/B7H3-IgC [3]
  EC50 (read off the curve): ~1 mg/L
[4]
  EC50 (read off the curve): ~0.6 mg/L

B2: antibody B7H4-C1 (antibody, V domains shown)
VH: QVQLQQWGAGLLKPSETLSLTCAVYGGSFSGYYWSWIRQPPGKGLEWIGEINHSGSTNYNPSLKSRVTISIDTSKNQFSLKLTSVTAADTAVFYCARGLFNWNFDSWGQGTLVTVSS
VL: DIQMTQSPSSLSASVGDRVTITCRASQGIRNDLGWYQQKPGKAPKRLIYGASSLQSGVPSRFSGSGSGTEFTLTISSLQPEDFATYYCLQHNSYPRTFGQGTTVEIKR
notes: Parent of B7H4-C1-N52S
[5]
  binding result: binds

B3: bsIgG1-huCD3-FEALxB7H4-C1-N52S-FEAR (bispecific antibody)
heavy 1: not shown
light 1: not shown
heavy 2: QVQLQQWGAGLLKPSETLSLTCAVYGGSFSGYYWSWIRQPPGKGLEWIGEISHSGSTNYNPSLKSRVTISIDTSKNQFSLKLTSVTAADTAVFYCARGLFNWNFDSWGQGTLVTVSSASTKGPSVFPLAPSSKSTSGGTAALGCLVKDYFPEPVTVSWNSGALTSGVHTFPAVLQSSGLYSLSSVVTVPSSSLGTQTYICNVNHKPSNTKVDKRVEPKSCDKTHTCPPCPAPEFEGGPSVFLFPPKPKDTLMISRTPEVTCVVVAVSHEDPEVKFNWYVDGVEVHNAKTKPREEQYNSTYRVVSVLTVLHQDWLNGKEYKCKVSNKALPAPIEKTISKAKGQPREPQVYTLPPSREEMTKNQVSLTCLVKGFYPSDIAVEWESNGQPENNYKTTPPVLDSDGSFFLYSRLTVDKSRWQQGNVFSCSVMHEALHNHYTQKSLSLSPGK
light 2: DIQMTQSPSSLSASVGDRVTITCRASQGIRNDLGWYQQKPGKAPKRLIYGASSLQSGVPSRFSGSGSGTEFTLTISSLQPEDFATYYCLQHNSYPRTFGQGTTVEIKRTVAAPSVFIFPPSDEQLKSGTASVVCLLNNFYPREAKVQWKVDNALQSGNSQESVTEQDSKDSTYSLSSTLTLSKADYEKHKVYACEVTHQGLSSPVTKSFNRGEC
notes: also called bslgG1-huCD3-FEALxB7H4-C1-N52S-FEAR; CD3xB7H4
B7H3
  binding result: no binding (tested: 10 µg/mL)
B7H4-IgV/B7H3-IgC [6]
  binding result: no binding (tested: 10 µg/mL)
[7]
  EC50 (read off the curve): ~1 mg/L
[8]
  IC50 of T cell-mediated cytotoxicity, HCC1954 cells, highest of 4 donors: 0.008 mg/L
  IC50 of T cell-mediated cytotoxicity, HCC1954 cells, lowest of 4 donors: 0.001 mg/L
  IC50 of T cell-mediated cytotoxicity, MCF7 cells, highest of 4 donors: 0.025 mg/L
  IC50 of T cell-mediated cytotoxicity, MCF7 cells, lowest of 4 donors: 0.012 mg/L
  IC50 of T cell-mediated cytotoxicity, MDA-MB-468 cells, highest of 4 donors: 0.004 mg/L
  IC50 of T cell-mediated cytotoxicity, MDA-MB-468 cells, lowest of 4 donors: 0.001 mg/L
  IC50 of T cell-mediated cytotoxicity, OVCAR3 cells, highest of 4 donors: 0.012 mg/L
  IC50 of T cell-mediated cytotoxicity, OVCAR3 cells, lowest of 4 donors: 0.003 mg/L
  IC50 of T cell-mediated cytotoxicity, SK-BR3 cells, highest of 4 donors: 0.016 mg/L
  IC50 of T cell-mediated cytotoxicity, SK-BR3 cells, lowest of 4 donors: 0.002 mg/L
[9]
  Kd: 0.021 µM
  koff: 0.003 s⁻¹
  kon: 140000 M⁻¹ s⁻¹
